The values below come from the nanobody polyreactivity screen of Harvey et al. (2022).

This data set can be described thus: yeast display, Sf9 membrane polyspecificity reagent, FACS + sequencing; frameworks hold sequencing errors. The method, boiled down: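 A nanobody's polyreactivity label depends on the gate it was sorted from. Yeast display cells were stained with 10% biotinylated, detergent-solubilized Sf9 membrane reagent for 1 hour at 4 °C, enriched on streptavidin microbeads and sorted by FACS. The low and high (top ~1%) gates were set on anti-HA fluorescence for expression and streptavidin fluorescence for reagent binding.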
As to “QVQLVESGGGLVQAGGSLRLSCASSGRTFPGNAMGWYRPAPGKERELVAAISWSGTRTYYADSVKGRFTISRDNAKNTVSLKMNSLKPEDTAVYSCNVVVKGAWDYYPYDYWGQGTQVTVSS”, the “polyreactivity (PSR sort gate)” value was “high polyreactivity”.
For “QVQLVESGGGLVQAGGSLRLSCASSGRTFRPYAKGWYRPAPGKDRELVAAITGGTRTYYADSVKGRFTISRDNAKNTVYLQMNSLKPEDTAGYYCAKGDFFSKHDYWGQGTQVTVSS” the value was “low polyreactivity”.
For “QVQLVESGGGLVQAGGSLRLSCASSGRTFRRYARGWYRQAPGKERELVATIRSGDNTNYADSVKGRFTISRDNAKNTVYLQMNSLKPEDTAVYYCNRSPKSGQVTYLYSVNAHYDYWGQGTQVTVSS” the value was “low polyreactivity”; for “QVQLVESGGGLVQAGGSLRLSCASSGRTFRYYAKGWYRQAPGKERELVATISSGGSTNYADSVKGRFTISRDNAKNTVYFQMNSLKPEDTAVYYCAAAKYVTYLSIYYYWGQGTQVTVSS”, “high polyreactivity”; for “QVQLVESGGGLVQAGGSLRLSCASSGRTFTYNAMGWYRQAPGKERELVAVIRYSGGTTYYADSVKGRFTISRDNAKNTVYFQMNRLIPEDTAVYYCAADSWSRSVNYYYWGQGTQVTVSS”, “low polyreactivity”.
With “QVQLVESGGGLVQAGGSLRLSCASSGRTFVFYAMGWYRHAPGKERELVAAITSGTSTNYADSVKGRFTISRDNAKNTVYLQMISLKPEDTAVYYCAAYWTDVTYSIGFGYWGQGTQVTVSS” the entry was “low polyreactivity”; with “QVQLVESGGGLVQAGGSLRLSCASSGSIFGGNAMGWYRQAPGKERELVAAITQSGDRTYYADSVKGRFTISRDNAKNTVYLQMNSLKPEDTAVYYCAARSPRKYGSIGYYWGQGTEVTVSS”, “high polyreactivity”.
Turning to “QVQLVESGGGLVQAGGSLRLSCASSGSIFTGNVMGWYRQAPGKERELVAAISSRGGNTYYADSVKGRFTISRDNAKNTVYLQMNSLKPEDTAVYYCNKVKYTWYDWGQGTQVTVSS”, the “polyreactivity (PSR sort gate)” value was “high polyreactivity”.
As to “QVQLVESGGGLVQAGGSLRLSCASSGSNFGRYAMGWYRQAPGKEREFVAAISRSSDNTSYADSVKGRFTISRDIAKNTVYLQMNRLNPEDRAVYYCNADRPFSLGQRKYVDFDEPYNYWGQGTQVTVSS”, the “polyreactivity (PSR sort gate)” value is given as “low polyreactivity”.
With “QVQLVESGGGLVQAGGSLRLSCASSGSTFFTNVMVRYRQAPGKERELVAAIDQRDGRTYYADSVKGRFTISRDNAKNTVYLQMNSLKPEDTAVYYSNAGTDGYQFYFGFADYDYWGQGTQVTVSA” the entry was “low polyreactivity”; with “QVQLVESGGGLVQAGGSLRLSCASSGSTFISYAMGWYRPAPGKERELVAAISRRGDSTYYADSVKGRFTISRDNAKNTVYLQMNSLKPEDSAVYYCNAVEWDDYYYSYADYGYSYDYWGQGTQVTVSS”, “low polyreactivity”; with “QVQLVESGGGLVQAGGSLRLSCASSGSTFPGNAMGWYRQAPGKERELVAAIRDRGTSTYYADSVKGRFTISRDNAKNNVYLQMNSLKPEDTAVYYCAAASRVAKGRWRLYDDWGQGTQVTVSS”, “high polyreactivity”.
On to “QVQLVESGGGLVQAGGSLRLSCASSGSTFPRYAMGWYRPAPGKETELVAAISSSGRTYYADSVKGRFTISRDNAKNTVFLQMNSLKPEDTAVYYCNAPVARGEASYYWGQGTQVTVSS”, for which the “polyreactivity (PSR sort gate)” value is on record as “high polyreactivity”.
For “QVQLVESGGGLVQAGGSLRLSCASSGSTFSIYAMGWYRQAPGKERELVAGISGSGGSTYYADSVKGRFTISRDNAKNTVYLQMNSLKPEDTAVYYCAKRVLWGLDYWGQGTQVTVSS” the value was “low polyreactivity”.
For “QVQLVESGGGLVQAGGSLRLSCASSGSTFVPNTLGWYRQAPGKERELVAAISRSGGSTYYADSVKGRFTISRDNAKNTVYLQMNSLKPEDTAVYYCAARRFGYQGFAYGYWGQGTQVTVSS” the value was “high polyreactivity”; for “QVQLVESGGGLVQAGGSLRLSCASSGSTFVYNVMGRYRQAPGKERDLVAAISRSGGSTYYADSVKGRFTISRDNAKNSVYLQMNSLKPEDTAVYYCAKRVYGWWYDHWGQGTQVTVSS”, “high polyreactivity”.
With “QVQLVESGGGLVQAGGSLRLSCASSGSTFYFNAMGWYRQAPGKERELVAAITSSGGTTYYADSVKGRFTISRDNAKNTVYLQMNSLKPEDTAVFYCADWFSAYYSLYRHRGYWGHGTQVTVSS” the entry was “low polyreactivity”; with “QVQLVESGGGLVQAGGSLRLSCASSGSTFYWNGMGWYRQAPGKERDLVADITWSGTSTNYADSVKGRFTISRDNAKNTVYLQMNSLKPEDTAVYYCAVSDFGLRDSLTIYDEYDYWGQGTQVTVSS”, “high polyreactivity”; with “QVQLVESGGGLVQAGGSLRLSCASSGSTLGVNAMGWYRQAPGKVRELVADISVRTDSTYYADSVKGRFTISRDNAKNTVYLQMNSLKPEDTAVYYCAADVPYYYPGFYSYYDDSDYWGQGTQVTVSS”, “low polyreactivity”.
Turning to “QVQLVESGGGLVQAGGSLRLSCASSGYTFRYYAMGWYRQAPGKERELVAAITRRGATTYYADSVKGRFTISRDNAKNTVYLQMNRLQPEDTADYYCNAVYQYGSFVTAAGNYWGQGTQVTVSS”, the “polyreactivity (PSR sort gate)” value is listed as “high polyreactivity”.
For “QVQLVESGGGLVQAGGSLRLSCASSRINFYLYAMGWYRQAPGIERELVAAISRRGVSTYYADSVKGRFTISRDNAKNSVYLEMKSLKAEDTGVYYCAAAGFGYTGEEFWGQGTQVTVSS” the value was “high polyreactivity”; for “QVQLVESGGGLVQAGGSLRLSCASYGRIIGIYAMGWSRPAHGKERELVATITDSDDSTYYADSVKGRFTISRDNAKNTVYLQMNSLKPEDTAVYFCATAFSYGGGAYDYWGHGTQVTVSS”, “low polyreactivity”.
With “QVQLVESGGGLVQAGGSLRLSCATSGITFIGKYAMGWYRQAPGKERELVAAISWSGGRTYYADSVKGRFTISRDNAKNSDYLQMNSLKPEDTAVYYCAVYPRDAERYGYWGQGTQVTVSS” the entry was “high polyreactivity”.
With “QVQLVESGGGLVQAGGSLRLSCATSGRTLGGYAMGWYRHAPGKERELVASITSTSSTYADSVKGRFTISRDNAKNTVYLQMNSLKPEDTAVYYCAADPRRYRGFGYVYGGFYYWGQGTQVTVSS” the entry was “low polyreactivity”; with “QVQLVESGGGLVQAGGSLRLSCATSGSIFVFNAMGWYRQAPGKERELVAAIDTSDDITYYADSVKGRFTISRDNAKNTVYLQMNSLKPEDTAVYYCNAYYTYRFNYWGQGTQVTVSS”, “high polyreactivity”.
Turning to “QVQLVESGGGLVQAGGSLRLSCDASGFISFGNAMGWNRQAPRKERELVAGISRSGGSTYYADSVKGRFTISRDNAKNTVYLQMISLKPEDTAVYYCATRVAIYPYRFDYWGQGTQVTVSS”, the “polyreactivity (PSR sort gate)” value is “high polyreactivity”.
For “QVQLVESGGGLVQAGGSLRLSCDASGFTFARYNMGWYRQAPGKERELVAAISSRGSSTYYADSVKGRFTISRDNAKNTVYLQMNSLKAEDTAVYYCAAPPRYGYDYWGQGTQVTVSS” the value was “high polyreactivity”; for “QVQLVESGGGLVQAGGSLRLSCDASGGPFYLNAMGWYRPAPGTERELVAGITWGGGRTYYADSVKGLFTISRDNAKNTVYLQMNSLKPEDTAVYYCAAGAWRGPYSGYYYWGQGTQVTVSS”, “low polyreactivity”; for “QVQLVESGGGLVQAGGSLRLSCDASGGTITNYAMGWYRQAPGKERELVAAITDSGATTYYADSVKGRFTISLVTAKNPVSLQMNSLKPEDTAVYDCNAELDLYTYFDYWGQGTQVTVSS”, “low polyreactivity”.
For “QVQLVESGGGLVQAGGSLRLSCDASGIIFASYAMGWYRQAPGKERELVAAISGGGSTYYADSEKGRFTISRDNAKNTVYLQMNSLKPVDTAVYYCNAEAYYRWLTNIWYSDFDYWGLGTQVTVSS” the value was “low polyreactivity”; for “QVQLVESGGGLVQAGGSLRLSCDASGIIFRGNSMGWYRQAPGKERELVAAISRSGRTNYADSVKGSFTISRDNAKNTVYLQMYSLKPEDTAVYYCAVDKRYGRVFGRDYDYWGQGTQVTESS”, “high polyreactivity”; for “QVQLVESGGGLVQAGGSLRLSCDASGIIIRWYAMGWYRQAPGKERELVAAITSSGGRTYYADSVKGRFTISRDNAKNTVYLQMNSLKPEDTAVYYCAAQRYSHLYRGRFAYRYYYWGQGTQVTVSS”, “high polyreactivity”.
Turning to “QVQLVESGGGLVQAGGSLRLSCDASGITLRTYSIGWYRQAPGKERELVAAISKSGDRTYYADSVKGRFTISRDNAKNTVYLQMNSLKPEDNAVYYCAKATNAQYLYDYWGQGTHVTVSS”, the “polyreactivity (PSR sort gate)” value is reported as “low polyreactivity”.
For “QVQLVESGGGLVQAGGSLRLSCDASGLIFRPYARGWFRQAPGKERELVAAITSGGSTDYADSVKGRFTISRDNAKNTVYLLMNSLKPADTAVYYCNADIYPHDGYPWQGDYDYWGQGTQVTVSS” the value was “low polyreactivity”.
On to “QVQLVESGGGLVQAGGSLRLSCDASGLTFPSYAMGWYRQAPGKERELVAAISSGDSTNYADSVKGRFTISRDNAKNTVYLQMNSLKPEDTAVYYCAVGLPHGGRRLYGSWYRFDYWGQGTQVTVSS”, for which the “polyreactivity (PSR sort gate)” value is on record as “low polyreactivity”.
For “QVQLVESGGGLVQAGGSLRLSCDASGLTFSFYVMGWYRQAPVKERELVAAISRSGTSTYYSDSVKGRFTISRDNAKNTVYLQMNSLKPEDTAVYYCADRGRWLYYLYELDYWGQGTQVTESS” the value was “high polyreactivity”.
For “QVQLVESGGGLVQAGGSLRLSCDASGLTFSGYVMGWYRQAPGKESELVAAISLSGGSTYYADSVKGRFTISRDNAKNTVYLQMNSLKPEDTAVYYCAARTPFYNSYRRDYWGQGTQVTVSS” the value was “high polyreactivity”; for “QVQLVESGGGLVQAGGSLRLSCDASGLTIYGYAIGSYRQAPGKERELVAAITSGDSTYYADSVKGRFTISRDTAKNTVYFQMNSLKPDDTAVYYCAAVGGYPRYGYWGQGTQVTVSS”, “high polyreactivity”; for “QVQLVESGGGLVQAGGSLRLSCDASGRIFSLYAMGWYRQAPGKERELVAAISRRSGNTNYADSVKGRFTISRDNAKNNVFLQLNSLKPEDTAVYFCAARPGAISSTSPYDYWGEGTQVTVSS”, “high polyreactivity”.
With “QVQLVESGGGLVQAGGSLRLSCDASGRIFVVYAMGWSRQAPGKERELVAAITGGGRTNYADSVKGRFTISRDNAKNTVYLQMNSLKPEDTAVYYCAAGTRSDARRYYYWGQGTQVTVSS” the entry was “low polyreactivity”.
